Results as given in patent KR20230117039A (dated 2023).

T1: N-terminally biotinylated hNinj1 (2-56) peptide (human, UniProt Q92982 2-56, N-terminal biotin)
T1 construct: range 2-56; also called hNinj1 펩타이드
T1 sequence (peptide, looked up): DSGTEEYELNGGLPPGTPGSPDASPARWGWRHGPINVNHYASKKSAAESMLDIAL

T2: hNinj1 extracellular domain peptide with added C-terminal lysine, biotinylated (human)
T2 sequence (peptide, biotin on the added C-terminal lysine (K57)): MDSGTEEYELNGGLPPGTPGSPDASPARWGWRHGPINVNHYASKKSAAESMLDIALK

T3: NINJ1 peptide (analyte of the sandwich ELISA) (UniProt Q92982 1-56, limits assumed)
T3 construct: also called Ninj1 펩타이드; NINJ1 펩타이드
T3 sequence (peptide, looked up): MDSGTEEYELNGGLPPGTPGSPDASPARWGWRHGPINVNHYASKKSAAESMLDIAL

B1: C11, scFv clone of the VH3VL1 synthetic human antibody library (scFv)
chain: EVQLLESGGGLVQPGGSLRLSCAASGFTFSSYGISWVRQAPGKGLEWVSAISGSGGSTYYADSVKGRFTISRDNSKNTLYLQMNSLRAEDTAVYYCARTPIDADAFDYWGQGTLVTVSSGGGGSGGGGSGGGGSQSVLTQPPSASGTPGQRVTISCTGNIGNIASNYVQWYQQLPGTAPKLLIYDTYNKHRGVPDRFSGSKSGTSASLAISGLRSEDEADYYCGAWDDSLSGPVFGGGTKLTVLGQAGQHHHHHHGAYPYDVPDYAS
B2: B3, scFv clone of the VH3VL1 synthetic human antibody library (scFv)
chain: EVQLLESGGGLVQPGGSLRLSCAASGFTFSDYDMSWVRQAPGKGLEWVSGISSDNGSTYYADSVKGRFTISRDNSKNTLYLQMNSLRAEDTAVYYCARAAITCNNEWCYYYDAMDVWGQGTLVTVSSGGGGSGGGGSGGGGSQSVLTQPPSASGTPGQRVTISCTGPSSNIGNNDVSWYQQLPGTAPKLLIYANSNRPSGVSDRFSGSKSGTSASLAISGLRSEDEADYYCGAWDDSLNGYVFGGGTKLTVLGQAGQHHHHHHGAYPYDVPDYAS
B3: E6, scFv clone of the VH3VL1 synthetic human antibody library (scFv)
chain: EVQLLESGGGLVQPGGSLRLSCAASGFTFSSYAIHWVRQAPGKGLEWVSAISGSGGSTYYADSVKGRFTISRNNSKNTLYLQVNSLRAEDTAVYYCARNPTYGGFDIWGQGTLVTVSSGGGGSGGGGSGGGGSQSVLTQPPSASGTPGQRVTISCSGSSSNIGSNYVYWYQQLPGTAPKLLIYRNNQRPSGVPDRFSGSKSGTSASLAISGLRSEDEADYYCGAWDDSLSSPVFGGGTKLTVLGQAGQHHHHHHGAYPYDVPDYAS
B4: C12, Fab clone of the rabbit immune library (Fab, V domains shown)
VH: QEQLKETGGGLVQPGGSLKLSCKASGIDFNTYTVSWVRQAPGKGLELIGYVDPVFDDTYYATWVNGRFTISSHNAQNTVYLQLNSLTAADTATYFCARLGAYDSSSGYPNFSLWGPGTLVTISS
VL: ELTQPPSLSASLDTTARLTCTLSTDYSVGEYPLVWLQQVPGRPPRYLLGYHTDDIKHQGPGVPSRFSGSKDHSTNTGVLTISGLQPEDEADYYCAVGVVFGGGTQLTVTG
B5: C12 anti-Ninj1 IgG antibody (antibody, V domains shown)
VH: B4 VH
VL: B4 VL
notes: Tested as IgG made in ExpiCHO; also called C12 IgG; 항 C12 Ninj1 항체
B6: G2, Fab clone of the rabbit immune library (Example 1.3.3) (Fab, V domains shown)
VH: B4 VH
VL: B4 VL

Experiments:
[1] = target: T1, N-terminally biotinylated hNinj1 (2-56) …; assay: scFv clone ELISA screen
[2] = target: T2, hNinj1 extracellular domain peptide with added C-terminal lysine, biotinylated (human); assay: clone ELISA screen
[3] = target: T3, NINJ1 peptide (analyte of the sandwich …); assay: sandwich ELISA, NINJ1 titrated

ELISA ratio hNinj1/control [1]	ELISA ratio hNinj1/control [2]	other results	Binder
6.18			B1
5.12			B2
5.62			B3
	5.09		B4
		EC50 [3]: ~0.03 µg/mL	B5
	10.6		B6
